Experimental findings from patent publication US20200024330A1 are described below.

For orientation: IC50 means the concentration that inhibits the measured activity by half. Low readings indicate greater potency in that assay, high ones weaker potency in that assay. The term IC80 denotes the point of the concentration-response curve where the effect stands at 80%. High values mean weaker potency, low ones greater potency. What is called IC90 is the concentration at which the effect reaches the 90% level. What is called IC95 is the concentration needed for an effect of 95%.

Assay in all cases: cell-based or functional assay
For experiment [1], the target named is HIV-1 IAVI-C3 envelope glycoprotein (Env) on pseudovirus (HIV-1).
The target of experiment [2] is HIV-1 92BR020 envelope protein (Env) on pseudotyped virus (HIV-1 isolate 92BR020).
Experiment [3] has as its target HIV-1 APV-13 envelope glycoprotein (Env) on pseudovirus (HIV-1).
For experiment [4], the target named is HIV-1 APV-17 envelope glycoprotein (Env) on pseudovirus (HIV-1).
Experiment [5] deals with aMLV envelope protein on pseudotyped virus (negative control) (aMLV).
Experiment [6] has as its target HIV-1 Env of isolate 92RW009 (HIV-1).
In experiment [7] the target is HIV-1 Env of isolate 92RW024 (HIV-1).
Experiment [8] addresses HIV-1 Env of isolate 92RW026 (HIV-1).
The target of experiment [9] is HIV-1 Env of isolate MGRM-F1-020 (clade F), on pseudovirus (HIV-1).
The target of experiment [10] is HIV-1 Env of isolate SC422661.8 (subtype B) (HIV-1).
For experiment [11], the target named is HIV-1 envelope glycoprotein (Env) of isolate APV_17, on pseudovirus (HIV-1).
The target of experiment [12] is HIV-1 envelope glycoprotein (Env) of isolate CAAN.A2, on pseudovirus (HIV-1).
Experiment [13] concerns the target HIV-1 envelope glycoprotein (Env) of isolate MGRM-Chronic-B-008, on pseudovirus (HIV-1).
In experiment [14] the target is HIV-1 envelope glycoprotein (Env) of isolate MGRM-Chronic-B-010, on pseudovirus (HIV-1).
Experiment [15] concerns the target HIV-1 envelope glycoprotein (Env) of isolate MGRM-Chronic-B-017, on pseudovirus (HIV-1).
Experiment [16] addresses HIV-1 envelope glycoprotein (Env) of isolate MGRM-Chronic-B-018, on pseudovirus (HIV-1).
The target of experiment [17] is HIV-1 envelope glycoprotein (Env) of isolate MGRM-Chronic-B-023, on pseudovirus (HIV-1).
For experiment [18], the target named is HIV-1 93UG077 Env (pseudovirus) (HIV-1).
For experiment [19], the target named is HIV-1 94UG103 Env (pseudovirus) (HIV-1).
The target of experiment [20] is HIV-1 APV13 Env (pseudovirus) (HIV-1).
The target of experiment [21] is HIV-1 APV17 Env (pseudovirus) (HIV-1).
Experiment [22] deals with HIV-1 MGRM-C-027 Env (pseudovirus) (HIV-1).
Experiment [23] concerns the target HIV-1 92BR020 envelope glycoprotein (Env) (HIV-1).
Experiment [24] concerns the target HIV-1 JR-CSF Env H330A (HIV-1 isolate JR-CSF) (UniProt P20871).
Experiment [25] concerns the target HIV-1 JR-CSF Env I414A (HIV-1 (isolate JR-CSF)) (UniProt P20871).
Experiment [26] deals with HIV-1 JR-CSF Env I415A (HIV-1 (isolate JR-CSF)) (UniProt P20871).
The target of experiment [27] is HIV-1 JR-CSF Env K421A (HIV-1 (isolate JR-CSF)) (UniProt P20871).
The target of experiment [28] is HIV-1 JR-CSF Env L416A (HIV-1 (isolate JR-CSF)) (UniProt P20871).
For experiment [29], the target named is HIV-1 JR-CSF Env N241A (HIV-1 JR-CSF) (UniProt P20871).
The target in experiment [30] is HIV-1 JR-CSF Env N295A (HIV-1 JR-CSF) (UniProt P20871).
The target of experiment [31] is HIV-1 JR-CSF Env N386A (HIV-1 isolate JR-CSF) (UniProt P20871).
The target in experiment [32] is HIV-1 JR-CSF Env N411A (HIV-1 (isolate JR-CSF)) (UniProt P20871).
The target of experiment [33] is HIV-1 JR-CSF Env Q422A (HIV-1 (isolate JR-CSF)) (UniProt P20871).
Experiment [34] deals with HIV-1 JR-CSF Env R327A (HIV-1 isolate JR-CSF) (UniProt P20871).
Experiment [35] addresses HIV-1 JR-CSF Env R350A (HIV-1 isolate JR-CSF) (UniProt P20871).
For experiment [36], the target named is HIV-1 JR-CSF Env S306A (HIV-1 JR-CSF) (UniProt P20871).
Experiment [37] has as its target HIV-1 JR-CSF Env T202A (HIV-1 JR-CSF) (UniProt P20871).
Experiment [38] deals with HIV-1 JR-CSF Env T320A (HIV-1 isolate JR-CSF) (UniProt P20871).
For experiment [39], the target named is HIV-1 JR-CSF Env V292A (HIV-1 JR-CSF) (UniProt P20871).
Experiment [40] deals with HIV-1 Env of isolate MGRM-D-029 (HIV-1).

Substance 2G12 (antibody) came in with an IC90 (pseudovirus neutralization) in experiment [1] greater than 50 µg/mL.

Consider 1443_C16 (PG16) (TCN-116) (antibody), for which the IC50, pseudovirus neutralization, 1 hour Virus/Ab Incubation in experiment [2] and in [5] was greater than 50 µg/mL each time. Also, the IC50, pseudovirus neutralization, 18 hour Virus/Ab Incubation in experiment [2] and in experiment [5] was greater than 50 µg/mL in each case. Besides, the IC90 (pseudovirus neutralization) in experiment [3], in [4] and in experiment [1] was greater than 50 µg/mL throughout.

On to 1495_C14 (PGC14) (antibody), for which, in experiment [2], the IC50, pseudovirus neutralization, 1 hour Virus/Ab Incubation came to 1.17 µg/mL and the IC50, pseudovirus neutralization, 18 hour Virus/Ab Incubation is 0.244 µg/mL. Further, in [5], the IC50, pseudovirus neutralization, 1 hour Virus/Ab Incubation is greater than 50 µg/mL and the IC50, pseudovirus neutralization, 18 hour Virus/Ab Incubation was greater than 50 µg/mL.

Take 1496_C09 (PG9) (TCN-109) (antibody): the IC50 came to 0.05 µg/mL in experiment [6], 0.258 µg/mL in experiment [7] and 0.164 µg/mL in experiment [8]. The substance further came in with an IC50 (µg/mL), single-round pseudovirus neutralization in [9] of 6.4 µg/mL. This substance also yielded an IC50 (µg/mL), pseudovirus neutralization in experiment [10] of 1.48 µg/mL. For the same substance, the IC50, pseudovirus neutralization came out at 34.8 µg/mL in [11]; 19.3 µg/mL in [12]; 8.78 µg/mL in experiment [13]; 0.004 µg/mL in [14]; 0.688 µg/mL in [15]; 0.216 µg/mL in experiment [16]. The substance also came in with an IC50, pseudovirus neutralization in experiment [17] of 0.027 µg/mL.

For the substance 4838_L06 (PGT-121) (antibody), the neutralization IC90 in experiment [18] amounted to 0.369 µg/mL; in [20] it was 2.8 µg/mL; in [21] it was 0.799 µg/mL; in experiment [22] it was 0.374 µg/mL. The neutralization IC95 in [18] is 0.74 µg/mL; in experiment [20] it was 5.15 µg/mL; in experiment [21] it was 1.55 µg/mL; in experiment [22], 3.14 µg/mL. For the same substance, the neutralization IC80 in [19] is 8.85 µg/mL; in experiment [20], 1.31 µg/mL; in experiment [21], 0.371 µg/mL; in experiment [22] it was 0.0829 µg/mL.

For the substance 5141_B17 (PGT-126) (antibody), the IC50 in [18] amounted to 0.0256 µg/mL; in experiment [19] it was 0.0091 µg/mL; in experiment [20], 0.012 µg/mL; in experiment [21], 0.501 µg/mL; in experiment [22] it was 1.14 µg/mL. Moreover, the IC80 in experiment [18] is 0.102 µg/mL; in experiment [19] it was 0.0316 µg/mL; in experiment [20], 0.0411 µg/mL; in [21], 4.43 µg/mL; in [22], greater than 10 µg/mL. Moreover, the IC90 in [18] was 0.238 µg/mL; in experiment [19] it was 0.0655 µg/mL; in experiment [20] it was 0.084 µg/mL; in experiment [21] it was greater than 10 µg/mL; in experiment [22] it was greater than 10 µg/mL. Moreover, the IC95 is 0.577 µg/mL in experiment [18]; 0.128 µg/mL in experiment [19]; 0.162 µg/mL in experiment [20]; greater than 10 µg/mL in [21]; greater than 10 µg/mL in experiment [22].

As for PGT-121 (antibody), the IC50 neutralization in experiment [23] amounted to 0.0177 µg/mL. Also, the Fold IC50 increase relative to wild-type in [24] stood at 0.8 fold; in [25], 0.5 fold; in [26], 0.6 fold; in experiment [27], 1.3 fold; in experiment [28], 0.6 fold; in experiment [29], 0.5 fold. Besides, the Fold IC50 increase relative to wild-type in experiment [30] worked out at 0.6 fold; in experiment [31], 1.3 fold; in experiment [32], 0.4 fold; in experiment [33] it was 1.2 fold; in experiment [34], 2.5 fold; in experiment [35], 0.8 fold. The Fold IC50 increase relative to wild-type in [36] was found to be 0.7 fold; in [37], 1.2 fold; in experiment [38], 1.2 fold; in experiment [39], 2.7 fold.

PGT-122 (antibody) returned an IC50 neutralization in experiment [23] of 0.0337 µg/mL. Also, the Fold IC50 increase relative to wild-type in [24] stood at 0.5 fold; in [25], 0.5 fold; in experiment [26], 0.4 fold; in experiment [27] it was 1.2 fold; in experiment [28], 1 fold; in experiment [29], 1.4 fold. Further, the Fold IC50 increase relative to wild-type came to 0.7 fold in [30]; 1.2 fold in experiment [31]; 0.7 fold in experiment [32]; 1.1 fold in experiment [33]; 1.7 fold in experiment [34]; 0.6 fold in [35]. Further, the Fold IC50 increase relative to wild-type stood at 0.5 fold in experiment [36], 1.5 fold in experiment [37], 0.7 fold in [38] and 1.3 fold in [39].

PGV04 (antibody): the IC50 in experiment [6] is 0.108 µg/mL; in experiment [7], 0.31 µg/mL; in experiment [8], 0.14 µg/mL. Also, the IC50 (µg/mL), pseudovirus neutralization turned out to be 1.56 µg/mL in [40] and 0.11 µg/mL in experiment [10]. This substance registered an IC50 (µg/mL), single-round pseudovirus neutralization in experiment [9] of 5.99 µg/mL. Also, the IC50, pseudovirus neutralization in [11] was found to be 0.309 µg/mL; in experiment [12] it was 2.26 µg/mL; in experiment [13] it was 0.166 µg/mL; in [14] it was 0.744 µg/mL; in experiment [15], 0.129 µg/mL; in [16], 0.164 µg/mL. The substance further registered an IC50, pseudovirus neutralization in [17] of 0.139 µg/mL.

In experiment [40], VRC01 (antibody) showed an IC50, pseudovirus neutralization of 3.22 µg/mL.

As to b12 (antibody), the IC90 (pseudovirus neutralization) in experiment [3] and in [4] was greater than 50 µg/mL throughout.
